Molecular target: the molecule itself
Assay: SEC; gel filtration analysis of S. aureus MvaA protein; conditions not told in the text (Supplementary Fig. 9)

B1: S. aureus MvaA protein (HMG-CoA reductase), His-tag fused recombinant wild-type (enzyme, Staphylococcus aureus (strain RN4220), UniProt Q9FD86 1-425, looked up)
chain: MQSLDKNFRHLSRQQKLQQLVDKQWLSEDQFDILLNHPLIDEEVANSLIENVIAQGALPVGLLPNIIVDDKAYVVPMMVEEPSVVAAASYGAKLVNQTGGFKTVSSERIMIGQIVFDGVDDTEKLSADIKALEKQIHKIADEAYPSIKARGGGYQRIAIDTFPEQQLLSLKVFVDTKDAMGANMLNTILEAITAFLKNESPQSDILMSILSNHATASVVKVQGEIDVKDLARGERTGEEVAKRMERASVLAQVDIHRAATHNKGVMNGIHAVVLATGNDTRGAEASAHAYASRDGQYRGIATWRYDQKRQRLIGTIEVPMTLAIVGGGTKVLPIAKASLELLNVDSAQELGHVVAAVGLAQNFAACRALVSEGIQQGHMSLQYKSLAIVVGAKGDEIAQVAEALKQEPRANTQVAERILQEIRQQ
notes: MvaA protein (HMG-CoA reductase) of Staphylococcus aureus RN4220; mvaA gene amplified by PCR from chromosomal DNA with primers FmvaA-His and RmvaA-His and ligated into pET28a in-frame with the N-terminal histidine tag; also called SaMvaA; WT MvaA; source: E. coli BL21(DE3)pLysS, purified (nickel-chelating resin, dialysis)
stoichiometry N: 2
